{"source": "patent US8227212B2", "about": "“Cell that expresses a sulfatase and a formylglycine generating enzyme” (Shire Human Genetic Therapies, Inc., priority 2003, dated 2012)", "proteins": {"B1": {"name": "FGE (Bos taurus) (protein)", "chain": "GEEAGPEAGAPSLVGSCGCGNPQRPGAQGSSAAAHRYSREANAPGSVPGGRPSPPTKMVPIPAGVFTMGTDDPQIKQDGEAPARRVAIDAFYMDAYEVSNAEFEKFVNSTGYLTEAEKFGDSFVFEGMLSEQVKSDIQQAVAAAPWWLPVKGANWRHPEGPDSTVLHRPDHPVLHVSWNDAVAYCTWAGKRLPTEAEWEYSCRGGLQNRLFPWGNKLQPKGQHYANIWQGEFPVTNTGEDGFRGTAPVDAFPPNGYGLYNIVGNAWEWTSDWWTVHHSAEETINPKGPPSGKDRVKKGGSYMCHKSYCYRYRCAARSQNTPDSSASNLGFRCAADHLPTTG", "notes": "the soluble fraction (reticuloplasm) of bovine testis microsomes served as the starting material; from tissue; host or cells: bovine testis rough microsomes, reticuloplasm"}}, "substrate": "CSCC[C@H](NC(C)=O)C(=O)N[C@H](C(=O)N[C@@H](CC(=O)O)C(=O)N[C@@H](Cc1ccccc1)C(=O)N[C@@H](Cc1ccc(O)cc1)C(=O)N[C@H](C(=O)N1CCC[C@H]1C(=O)N[C@H](C(=O)N[C@@H](CO)C(=O)N[C@@H](CC(C)C)C(=O)N[C@@H](CS)C(=O)N[C@H](C(=O)N1CCC[C@H]1C(=O)N[C@@H](CO)C(=O)N[C@@H](CCCNC(=N)N)C(=O)N[C@@H](C)C(=O)N[C@@H](C)C(=O)N[C@@H](CC(C)C)C(=O)N[C@@H](CC(C)C)C(=O)N[C@H](C(=O)NCC(=O)N[C@@H](CCCNC(=N)N)C(=O)N[C@@H](CO)C(N)=O)[C@@H](C)O)[C@@H](C)O)C(C)C)C(C)C)[C@@H](C)O", "test": "In vitro assay for FGE with peptide P23 as substrate (MALDI-TOF)", "type": "biochemical, bovine", "conditions": "other: standard conditions; pH 9.0; 37.0 °C", "method": "For monitoring the activity of FGE, the N-acetylated and C-amidated 23mer peptide P23 ([…]) (SEQ ID NO:33) was used as substrate. The conversion of the Cysteine residue in position 11 to FGly was monitored by MALDI-TOF mass spectrometry. A 6 μM stock solution of P23 in 30% acetonitrile and 0.1% trifluoroacetic acid (TFA) was prepared. Under standard conditions 6 pmol of P23 were incubated at 37° C. with up to 10 μl enzyme in a final volume of 30 μl 50 mM Tris/HCl, pH 9.0, containing 67 mM NaCl, 15 μM CaCl2, 2 mM DTT, and 0.33 mg/ml bovine serum albumin. To stop the enzyme reaction 1.5 μl 10% TFA were added. […] Activity (pmol product/h) was calculated on the basis of the peak height of the product divided by the sum of the peak heights of P23 and the product.\nWe had developed an assay for determining FGE activity in microsome extracts using in vitro synthesized [^35S] […] The quantitation of the product included tryptic digestion, separation of the peptides by RP-HPLC and identification and quantitation of the [^35S]-labeled FGly containing tryptic peptide by a combination of chemical derivatization to hydrazones, RP-HPLC separation and liquid scintillation counting (Fey et al., J. Biol. Chem., 2001, 276:47021-47028). […] The cysteine and the FGly containing forms of P23 could be identified and quantified by matrix-assisted laser desorption/ionisation time of flight (MALDI-TOF) mass spectrometry. […]"}
{"protein": "B1", "values": [{"measurement": "Km", "result": 0.013, "unit": "µM"}]}
